As a reminder, the Km is the substrate concentration at which the rate is half of its maximum.

Substrate in this data set: O=S(O)(O)=S
Nature of the data set: thiosulfate sulfurtransferase initial rates, Michaelis-Menten fit. The settings on record: RHD domain activity; minimal TST activity. It counts as biochemical, Enterococcus faecalis.

B1: Ef CDR-RHD / CoA persulfide reductase (CoAPR) (Enterococcus faecalis OG1RF) (protein)
chain: MKIVIIGGVAGGMSAATRLRRLMEDAEIVVMEKGPFVSFANCGLPYYVSGEIAEREQLLVQTPEALKARFNLDVRPHHEVVAIDPIEKVITVKHETEILTEHYDKLILSPGAKPFVPPITGLAEAKNVFSLRNVPDLDQIMTALTPETKRAVVIGAGFIGLEMAENLQKRGLEVTLVEKAPHVLPPLDEEMAAFVKAELSKNNVQVITGQSAVAFEEEGQVIRLEDGQTLASDLTILSVGVQPENTLAVEAGVATGLRGGIVVDEHYQTNQPDIYAVGDAIVVKQQITQEDALISLASPANRQGRQVADVIAGLERKNQGSIGTAIVRVFDLTAASTGLSERAAKAAGLTTAVVHISGKDHAGYYPGATDLQLKLVFHPTTGEIYGAQGIGAKGVDKRIDILATAIKGQLTIFDLPELEFTYAPPFGSAKDPVNMLGYAAMNLVEGLSENVQWYELSNELAKGAVLLDVRNPAERANGQFKNAVSIPLNELRERLEELDKSTEYIVSCHSGLRSYIAERMLKQAGISAKNLDGAFALYRMVKPEELENV
As to B1, the Michaelis constant (Km) came out at 1000 ± 600 µM.

Source of the values: paper PMC6088750.
